{"source": "paper PMC13168374", "about": "“Reversible DNA condensation drives natural transformation”", "molecules": {"B1": {"name": "30 bp DNA duplex (dsDNA)", "DNA 1": "GCACTGTGAATATCACTACAGCAACCTTGA", "DNA 2": "TCAAGGTTGCTGTAGTGATATTCACAGTGC"}}, "key": {"[1]": {"target": "T1, ComEA (soluble truncation) (Geobacillus stearothermophilus, UniProt A0A0K9HI54 60-207)", "T1 sequence": "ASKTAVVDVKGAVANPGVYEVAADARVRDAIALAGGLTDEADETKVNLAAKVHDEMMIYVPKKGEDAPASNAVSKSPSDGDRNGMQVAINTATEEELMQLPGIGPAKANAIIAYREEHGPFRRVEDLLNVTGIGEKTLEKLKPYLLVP", "assay": "optical tweezers overstretching", "conditions": "EC50 of overstretch force increase; Ymax 28.6 pN; 23 C; FP: 20 mM Tris-HCl pH 7.5, 200 mM KCl, 80 nM DNA, ~20 C (spin at 20 C; read temperature not stated); optical tweezers 23 +/- 1 C, buffer not given in material"}, "[2]": {"target": "ComEA LL ins19aa;after;143 (Geobacillus stearothermophilus) (UniProt A0A0K9HI54)", "assay": "optical tweezers overstretching", "conditions": "FP: 20 mM Tris-HCl pH 7.5, 200 mM KCl, 80 nM DNA, ~20 C (spin at 20 C; read temperature not stated); optical tweezers 23 +/- 1 C, buffer not given in material"}, "[3]": {"target": "T2, ComEA deltaL internal_change (Geobacillus stearothermophilus) (UniProt A0A0K9HI54)", "T2 sequence": "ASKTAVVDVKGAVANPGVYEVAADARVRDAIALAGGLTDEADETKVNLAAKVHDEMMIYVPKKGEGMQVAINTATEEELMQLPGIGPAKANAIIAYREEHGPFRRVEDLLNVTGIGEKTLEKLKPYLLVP", "assay": "optical tweezers overstretching", "conditions": "FP: 20 mM Tris-HCl pH 7.5, 200 mM KCl, 80 nM DNA, ~20 C (spin at 20 C; read temperature not stated); optical tweezers 23 +/- 1 C, buffer not given in material"}, "[4]": {"target": "T3, ComEA A108Y A108Y (Geobacillus stearothermophilus) (UniProt A0A0K9HI54)", "T3 sequence": "T1 sequence with A49Y", "assay": "optical tweezers overstretching", "conditions": "EC50 of overstretch force increase; Ymax 12.7 pN; 23 C; FP: 20 mM Tris-HCl pH 7.5, 200 mM KCl, 80 nM DNA, ~20 C (spin at 20 C; read temperature not stated); optical tweezers 23 +/- 1 C, buffer not given in material"}, "[5]": {"target": "ComEA from Geobacillus stearothermophilus, soluble truncation lacking the N-terminal sequence (amino acids 60-207) (Geobacillus stearothermophilus)"}, "[6]": {"target": "ComEA from Geobacillus stearothermophilus, soluble truncation lacking the N-terminal sequence (amino acids 60-207) (Geobacillus stearothermophilus)", "remark": "listed apart in the source"}, "[7]": {"target": "ComEA from Geobacillus stearothermophilus, soluble truncation lacking the N-terminal sequence (amino acids 60-207) (Geobacillus stearothermophilus)", "remark": "listed apart in the source"}, "ComEA deltaL": {"target": "T4, ComEA deltaL (Geobacillus stearothermophilus, UniProt A0A0K9HI54 60-124+143-207, internal_change)", "T4 sequence": "T2 sequence", "assay": "fluorescence polarization; Kd within error of ComEA; Hill >1; value in Fig. 5c only; FP: 20 mM Tris-HCl pH 7.5, 200 mM KCl, 80 nM DNA, ~20 C (spin at 20 C; read temperature not stated); optical tweezers 23 +/- 1 C, buffer not given in material", "conditions": "protein: recombinant; label: 3'-fluorescein (36-FAM) on strand 1; blunt"}, "ComEA A108Y": {"target": "T5, ComEA A108Y (Geobacillus stearothermophilus, UniProt A0A0K9HI54 60-207, A108Y)", "T5 sequence": "T1 sequence with A49Y", "assay": "fluorescence polarization; Hill coefficient 0.96 +/- 0.16; FP: 20 mM Tris-HCl pH 7.5, 200 mM KCl, 80 nM DNA, ~20 C (spin at 20 C; read temperature not stated); optical tweezers 23 +/- 1 C, buffer not given in material", "conditions": "protein: recombinant; label: 3'-fluorescein (36-FAM) on strand 1; blunt"}, "[8]": {"target": "T1, ComEA (soluble truncation)", "assay": "fluorescence polarization; Hill coefficient 1.56 +/- 0.28; FP: 20 mM Tris-HCl pH 7.5, 200 mM KCl, 80 nM DNA, ~20 C (spin at 20 C; read temperature not stated); optical tweezers 23 +/- 1 C, buffer not given in material", "conditions": "protein: recombinant; label: 3'-fluorescein (36-FAM) on strand 1; blunt"}}, "note": "Positions count from the first letter of the chain named."}
{"molecule": "6 kbp dsDNA (optical tweezers)", "values": [{"measurement": "K half", "setting": "[1]", "result": 290, "unit": "nM"}, {"measurement": "K half", "setting": "[2]", "result": 330, "unit": "nM"}, {"measurement": "K half", "setting": "[3]", "result": 380, "unit": "nM"}, {"measurement": "K half", "setting": "[4]", "result": 210, "unit": "nM"}]}
{"molecule": "ComEA from Geobacillus stearothermophilus, soluble truncation lacking the N-terminal sequence (amino acids 60-207) (domain or fragment)", "values": [{"measurement": "fold condensation of 5.495 kbp dsDNA (bounding circle radius, negative stain electron microscopy), 200 nM-4 µM ComEA, peak value", "setting": "[5]", "result": 3.5, "unit": "fold"}, {"measurement": "condensation force from an eWLC fit of the DNA released per cycle against the extension held in the rest phase, optical tweezers", "setting": "[6]", "result": 0.07, "unit": "pN"}, {"measurement": "condensation force produced and held for at least 1 s during the 10 s rest phase, optical tweezers, 20 nM-4 µM ComEA (value at 200 nM; buffer alone 0.03 pN)", "setting": "[7]", "result": 0.11, "unit": "pN"}]}
{"molecule": "B1", "values": [{"measurement": "binding result", "setting": "ComEA deltaL", "result": "binds"}, {"measurement": "Kd", "setting": "ComEA A108Y", "result": "1910 ± 520", "unit": "nM"}, {"measurement": "Kd", "setting": "[8]", "result": "660 ± 80", "unit": "nM"}]}
